Assay results from the nanobody polyreactivity screen of Harvey et al. (2022).

Experiment: yeast display, Sf9 membrane polyspecificity reagent, FACS + sequencing; frameworks hold sequencing errors
In short: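 Nanobodies from a synthetic yeast display library (Saccharomyces cerevisiae BJ5465), induced 36–48 hours with galactose, were stained 1 hour at 4 °C with 10% biotinylated, detergent-solubilized Sf9 membrane reagent, enriched on streptavidin microbeads, then FACS-sorted. Anti-HA (expression) and streptavidin (reagent binding) fluorescence set low and high (top ~1%) gates. Polyreactivity labels come from the gate of origin. Genes were colony-PCR amplified, MiSeq 2 × 250 sequenced and filtered by CDR length.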

Sequence: QVQLVESGGGLVQAGGRLRLTCAASGSTLPLNAMGWYRQAPGKEREFVASITYSGGNTYYADSVKGRFTISRDNAKNTVYLQMNSLKPEDTAVYYCAVDEYGIWVGWVPYATFGMNYWGQGTQVTVSS
- polyreactivity (PSR sort gate): high polyreactivity

Sequence: QVQLVESGGGLVQAGGRLRLTCSASGFIIRFYAMGWYRQATGKEREFVASISRRAGRTYYADSVKGRFTISRDNAKNTVYLQMNSLKPEDTAVFYCAASGFGSFRYSSTYDYWGQGSQVTVSS
- polyreactivity (PSR sort gate): high polyreactivity

Sequence: QVQLVESGGGLVQAGGRLSLSCAASGSIFEKNAIGWYIQAPGKERELFAAISSSGGRTNYADSVKGRYTISRDNAKITVYFQMNSLKPEDTAVYYCAAYRRGHRYPGYEYWGQGTQVTVSS
- polyreactivity (PSR sort gate): high polyreactivity

Sequence: QVQLVESGGGLVQAGGRLSLSCAASGSIFRNNTMGWYRQAPGKERELVAAISGRGTPTSYADSVKGRFTISRDNAKNTVYLQMNSLKPEDTAVYYCAAVYYWRPGWYVRFDYWGQGTQVTVSS
- polyreactivity (PSR sort gate): low polyreactivity

Sequence: QVQLVESGGGLVQAGGSHGLSCAASGSTFYYNAMGWYRPAPGKERELVARISRSGGSTYADSVKGRFTISRDNAKNTVYLLMNSLKPEDTAVYYCNADAYGTPEFTSYAVRYDHWGQGTQETVSS
- polyreactivity (PSR sort gate): low polyreactivity

Sequence: QVQLVESGGGLVQAGGSHRLRCAASGITLLLNAMGWYRQAPGKERELVAAISEGGGSTYYAHSVKGRFTISRDNAKNTVYLQMNSLKPEDTAVYYCNADRVYRVPSEYDSWGQGTQVTVSS
- polyreactivity (PSR sort gate): low polyreactivity

Sequence: QVQLVESGGGLVQAGGSHRLSCAASGFIFPYYTMGRYRQAPEKERELVAANRYSAGRTYYADSVKGRFTISRDIAKNTVYLQLNSLKPVDTAVYYCNAVSSGDMDYWGQGTQVTVSS
- polyreactivity (PSR sort gate): high polyreactivity

Sequence: QVQLVESGGGLVQAGGSHRLSCAASGFTFWDYAMGWYRKAPGKEREMVAAITSRGTRTYYADSVKGRFTISRDNAKNTVYLQMNSLKPEDTDVYYCATAIPDPDYIHNYWGQGTQVTVSS
- polyreactivity (PSR sort gate): high polyreactivity

Sequence: QVQLVESGGGLVQAGGSHRLSCAASGITFRRNTMGWYRQAPGKERELVATISWRGGNTFYADSVKGRFTFSRDNAKNTVYLQMNSLKPEDTAVYYCNARGYGTLIVRRERMDYWGQGTQVTVSS
- polyreactivity (PSR sort gate): high polyreactivity

Sequence: QVQLVESGGGLVQAGGSHRLSCAASGITLGRYAMGWYRQAPGKEREFVAAISSWSGGSTTYADSVKGRFTISRDNAKNTVYLQMNSLKPEDTAVYYWNARRYYGRYYLGHSDYDYWGQGTQVTVSS
- polyreactivity (PSR sort gate): high polyreactivity

Sequence: QVQLVESGGGLVQAGGSHRLSCAASGLTFFPYAMGWYRQAPGKERELVAAITTSDGTTYYADSVKGRFTISRDNAKNTVYLQMNSLKPEDTAVYYCAAVYSPRSVWWYDYWGQGTQVTVSS
- polyreactivity (PSR sort gate): low polyreactivity

Sequence: QVQLVESGGGLVQAGGSHRLSCAASGLTFYQYSMGWYRQAPGKERELVAAISKSAGSTYYADSVKGRFTISRDNAKNTVYLQMNSLKPEDTAVYYCAARVLRLRYDYWGQGTQVTVSS
- polyreactivity (PSR sort gate): high polyreactivity

Sequence: QVQLVESGGGLVQAGGSHRLSCAASGNAMGCYRQAPGKERELVAAITYGGTTTYYADSVKGRFTISRDNAKNTVYLQMNSLKPEDTAVYYCAADYVFVATPLRYDYWGQGTQVTVSS
- polyreactivity (PSR sort gate): low polyreactivity

Sequence: QVQLVESGGGLVQAGGSHRLSCAASGNTFPLYAMGWYRQAPGKERELVAAISQRGGSTYYADSVKGRFTISRDNAKNTVYLQMNSLKPEDTAVYYCAATWADEYQYRRYYYWGHGTQVTVSS
- polyreactivity (PSR sort gate): high polyreactivity

Sequence: QVQLVESGGGLVQAGGSHRLSCAASGRIFSVNAMGWYRQAPGKERELVASISWSGGSTYYADSVKGRFTISRDNAKNPVYLQMNSLKPEDTAVYYCNARIDSYGLDFDYWGQGTQVTVSS
- polyreactivity (PSR sort gate): low polyreactivity

Sequence: QVQLVESGGGLVQAGGSHRLSCAASGRTFRRNTMGWYRQAPGKERELVAAISSSGSSTYYADSVKGRFTISRDNAKNSVYLQMNSLKPEDTAVYYCAATGYPRFGYWGQGTQVTVSS
- polyreactivity (PSR sort gate): high polyreactivity

Sequence: QVQLVESGGGLVQAGGSHRLSCAASGRTFRYYTMGWYRQAPGKEREFVAAISSTGGTYYADSVKGRFTISRDNAKNTVYLQMNSLKPEDTAVYYCAKVYFWGALSPDKYDEDYWGQGTQVTVSS
- polyreactivity (PSR sort gate): low polyreactivity
